A short description of this series: yeast display, Sf9 membrane polyspecificity reagent, FACS + sequencing; frameworks hold sequencing errors. The procedure, abridged:
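Nanobodies came from a synthetic yeast display library in Saccharomyces cerevisiae BJ5465, induced with galactose for 36–48 hours and stained for 1 hour at 4 °C with 10% biotinylated, detergent-solubilized Sf9 membrane reagent. Cells were enriched on streptavidin microbeads and then FACS-sorted, with low and high (top ~1%) gates set on anti-HA fluorescence for expression and streptavidin fluorescence for reagent binding. Each polyreactivity label reflects the gate a clone came from. Genes were amplified by colony PCR, sequenced by MiSeq 2 × 250 and filtered by CDR length.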
Take “QVQLVESGGRLVQARGSLRLSCAASGRIFAYYTLGWYRQAPGKERELVAVISGSGGRTYYADSVKGRFTISRDNAKNTVYLQMNSRKPDDTAVYYCAAYYQGIKYDYWGQGTQVTVSS”: the “polyreactivity (PSR sort gate)” value is “high polyreactivity”. Next, “QVQLVESGGGLVQAGGSLRLSCAASGRIFSVYTMGWYRQAPGKERELVATISSGGRTNYADSVKGRFTISRDNAKNTVYLQMNSLKPEDTAVYYCAAVPYGFVGYDDYWGQGTQVTVSS”: “low polyreactivity”.

As to “QVHLVESVGGLVQAGGSLRLSCAASGRTFHYYAMGWYRQAPGKERELVAGITGGGSTYYADSVKGRFTISRDNAKNTVYLQMNSLKPEDTAVYYCAADRSYYGYGYWGQGTQVTVSS”, the “polyreactivity (PSR sort gate)” value is “low polyreactivity”. In the case of “QVQLVESGGGLVQAGGSLRLSCAASGRIFWINAMGWYRQAPGKERELVATISSGSTSYADSVKGRFTISRDNAKNTVYLHLNSLKPEDTAVYYCAVSLRYTRSGAYYYWGQGTQVTVSS”, the “polyreactivity (PSR sort gate)” value is on record as “low polyreactivity”. Consider “QVKLVESGGGLVQAGGSLRLSCAASGRIFNWYAMGWYRQAPGKERELVARISSGDITSYADSVKGRFTISRDNAKNTVYLQMNSLKPEDTALYYCNDDGFFLNVSPYDYWGQGTQVTVSS”, for which the “polyreactivity (PSR sort gate)” value is given as “low polyreactivity”. With “QVQLVESGGGLVQAGGSLRLSCAASGITLWQYAMGWYRQAPGKERELVAGITDTGDSTYYADSVKGRFTISRDNAKNTVYLQMNSLKPEDTAVYYCAVPRSALLRAPYELYSWGQGTQVTVSS” the entry was “low polyreactivity”; with “QVQLVESGGGLVQAGGSLRLSCAASGITFYVKDMGWYRQAPGKEREFVAAISYRGGSTYYADSVKGRFTISRDNAKNTVYLQMNSLKPEDTAVYYCAADYNYWSPHRYDYWGQGTQVTVSW”, “low polyreactivity”. With “QVQLVESGGGLVQAGGSLRLSCADSGRTFYYYAMGWYRQAPGKEREFVAAITTRGGSTYYADSVKGRFTISRDNAKNTVYLQMNSLTPEDTAVYYCAARYTGRQGVYKTYYYWGQGTQVTVSS” the entry was “high polyreactivity”. Next, “QVQLVESGGGLVQAGGSLRLSCAASGSTFLINAMGWYRQAPGKERELVAAITGRGGSTYYADSVKGRFTISRDNAKNTVYLQMNSLKPEDTAVYYCNAERLGTGYRYDYWGQGTQVTVSS”: “high polyreactivity”; “QVQLVESGGGLVQAGGSLRLSCAASGSTFYYYAMGWYSPAPGKERELVAAISRGGGSTNYADSVKGRFTISRDNAKNTVYLQMNSLKPEDTAVYYCATDYKYYGRPYNYWGQGTQVTVSS”: “high polyreactivity”. With “QVQLVESGGGLVQAGGSLRLSCAASGFIFYPNPMGWYRQAPGKERELVAAITSGGSTYADSVKGRFTISRDNAKNTVYLQMNSLKPEDTAVYYCAAVDTSIITFWYIASDGFDYWGQGTQVTVSS”, the “polyreactivity (PSR sort gate)” value is “low polyreactivity”. With “QDQLVESGGGLVQAGGSLRLSCAASGRTFRYNTMGWYRQAPGKERELVASISWGGGSTYYADSVKGRFTISRDTAKNTVYLQMNSLKPEDTAVYYCAARRWGQFRFEYWGQGTQVTVSS”, the “polyreactivity (PSR sort gate)” value is “high polyreactivity”. Regarding “QVQLVESGGGLVKAGGSLRLSCAASGSSLRYNAMGWYRQAPGKERELVAAISWGGGRTHYADSVKGRFTISRDNAKNSVYLQMNSLKPEDTAVYYCNGVSVRYLYYYWGQGTQVTVSS”, the “polyreactivity (PSR sort gate)” value is reported as “high polyreactivity”. With “QVQLAESGGGLVQAGGSLRLSCAASGRTFSQYGMGWYRQAPGKERELVARIRRSGGSTYYADSVKGRFTISRDNAKNTVYLQMNSLKPEDTAVYYCNADGQPYTRYGYWGQGTRVTVSS”, the “polyreactivity (PSR sort gate)” value is on record as “high polyreactivity”. With “QVQLVESGGGLVQAGGSLRLSCAASGRTFRHNAMGWYRQAPGKERELVAAISSSGTNTHYADSVKGRFTISRDNAKNTVYLQMNSLKPEDTAVYYCAADRWGARRKQYHENGYWGQGTQVTVSS” the entry was “high polyreactivity”; with “QVQLVESGGGLVQAGGSLRLSCAASGIISRVYAMGWYRLAPGKERELVAAISGSGGTTYYADSVKGRFTISRDNAKNTVYLLMNSLKPEDTAVYYCAARYKALYDYWGQGSQVTVSS”, “high polyreactivity”.

“QVQLEESGGGLVQAGGSLRLSCAASGFNFWVYAMGWYRQAPGKERELVAAISYNGGRTYYADSVKGRFTISRDNAKNTVYLQMNSLKPEDTAVYYCASLPAPTGRGDYWGQGTQVTVSS”: the “polyreactivity (PSR sort gate)” value is given as “high polyreactivity”. Next, “QVQLVESAGGLVQAGGSLRLSCAASGSTFVTYAMGWYRQAPGKERELVAAISSTGTGRTYYADSVKGRFTISRDNAKNTVYLQMNSLKPEDTAVYSCAADATSPLTWFDYWGQGTQVTVSS”: “low polyreactivity”. Turning to “QVQLVESGGGLVQAGGSLRLSCAASGLIFRDNTMGWYRQAPGKERELVAAINSGGGTSYADSVKGRFTISRDNAKNTVYLQMNSLKPEDTAVYYCAAAWWPYRYGTYYSQYDYWGQGTQVTVSS”, the “polyreactivity (PSR sort gate)” value is “low polyreactivity”.

For the sequence “QVQLVESGGGLVQAGGSLRLSCAASGSTFGSYTMGWYRQAPGKERELVAAINWSGGNTYYADSVKGRFTISRDNAKNTVYLQINSLKPEDTAVYYCAAAFYIYGVEGDYWGQGTQVTVSS”, the “polyreactivity (PSR sort gate)” value is on record as “low polyreactivity”.

In the case of “QVQLVESGGGLVQAGGSLRLSCAASGRTFNRYAMGWYRQAPGKERELVAAINSVGSTYYADSVKGRFPISRDNAKNTVYLQMNSLKPEDTAVYYCNAVQGSRFGYWGQGTQVTVSS”, the “polyreactivity (PSR sort gate)” value is “high polyreactivity”. Next, “QVQLVESGGGLVQAGGSLRLSCAASGIIFGRYAMGWYRQAPGKERELVAAINGSGGSTYYADSVKGRFTISRDNAKNTVYLQMNSLKPEDTAVYYCAANGFLRNGYWGQGTQVTVSS”: “high polyreactivity”; “QVQLVESGGGLVQAGGSLRLICAASGLTFTKYAMGWYRQAPGKERELVATITSGGSTNYADSVKGRFTISRDNAKNTVYLQMNSLKPEDTAVYYCNRDNYKWPYWEFDYWGQGTQVTVSS”: “high polyreactivity”. For the sequence “QDQLVESGGGLVQAGGSLLLSCAASGLTVGRYAMGWYRQAPGKERELVAVINGSGGNTYYADSVKGRFTISRDHATNTVYLQMHSLKPEDTAVYYCNVDDWGQGTQVTVSS”, the “polyreactivity (PSR sort gate)” value is “low polyreactivity”. For “QVQLVESGGGLVQAGGSLRLSCAASGFTFLYYDMGWYRQAPGKERELVAAITNDDSTYYADSVKGRFTISRDNAKNTVYLQMNSLKPEDTAVYYCAADSVYGSDEYWGQGTQVTVSS”, the “polyreactivity (PSR sort gate)” value is “high polyreactivity”. With “QVQLVESGGGLVQAGGSLRLSCAASGRIFVFYAMGWYRQAPGKERELVAAISKSVGPTYYADSVKGRFTISRDTAKNTVYLQMNSLKPADTAGYYCNKRSASDLWPQYGYWGQGTQVTVSS” the entry was “low polyreactivity”; with “QVQLVESCGGLVQAGGSLRLSCAASGRTFYKAMGWYRQAPGKERELVAASTTGGGTKYADSVKGRFTISRDNAQNTVYLQMNSLKPEDTAVYYCNTDEWYHFYHGAHKYDYWGQGTQVTVSS”, “low polyreactivity”. In the case of “QVQLEESAGGIVQAGGSLRLSCAGSGSTVSVYAMGWYRQAPGKEWELVARIRWSSGITYYADSVNGRFTISRDNAKNTVYLQLNSVKPEDTAVYYCNAQYRRAYLWFLYDYWGQGTQVTVSS”, the “polyreactivity (PSR sort gate)” value is “high polyreactivity”. For “QVQLVESGGGLVQAGGSLRLSCAASGRIFWDIDMGWYRQAPGKEWELVAAISRRGGSTSYADSVKGRFTISRDNAKTTVYLQINSLKPEDTAVYYCNVRTRWTRVRRYDYWGQGTQVTVSS”, the “polyreactivity (PSR sort gate)” value is reported as “high polyreactivity”. Next, “QVQLVESGGGLVQAGGSLRLSCAASGFIFVDYDMGWYSQAPGKERELVAAINWSGGSTDYADSVKGRFTISRDNAKNTVYLQMNSLKPEDTAVYYCAAEGQDGRFYWGQGTQVTVSS”: “low polyreactivity”; “QVQLVESGGGLVQAGGSLRLSCAASGSTFLQNAMGWYRQAPGKEREFVAAISYTGANTYYADSVKGRFTISRDNAKNTVYLQMNSLKPEDTAVYYCAAYARGVRRYRRYDYWGQGTQVTVSS”: “high polyreactivity”; “QVQLVESGGGLVQAGGSLRISCAASGRTLGYNAMGWYRQAPGKERELVAAISWSGGSTYYADSVKGRFTISRDNAKNTVYLQMNSLNPEDTAVYYCAARNNRYPLYNYWGQGTQVTVSS”: “low polyreactivity”.

On to “QVQLVESAGGLVQAGGSLRLSCDASGSTIDEYDMGWYRQAPGKERELVAAISDRGSRTRYADSVKGRFTISRDNAKNTVYLQLNSLKPEDTAVDYCNADIYVNYWDFDYWGQGTQVTVSS”, for which the “polyreactivity (PSR sort gate)” value is given as “high polyreactivity”.

As to “QVQLVESGGGLVQAGGSLRLSCAASGSTFYKYDMGWYRQAPGKEREFVAVISWSGGNTYYADSVKGRFTISRDNAKNNVYLQMNSLKPEDTAVYYCAADNYPDEYDYWGQGTQVTVSS”, the “polyreactivity (PSR sort gate)” value is reported as “low polyreactivity”. With “QVKLVESGGGLVQAGGSLRLICAASGRIFVPYAMGWNRQAPWKETELFAAISRSGGSTYYADSVKGRFTISRDNAKNTVYLQMNSLKTEETAVYYCAVYYRRYKEYGYNYWGQGTEVTVSS” the entry was “high polyreactivity”. As for “QVQLVESGGGLVQAGGSLRLSCAASGRIFQRYVMGWYRQAPGKERELVASISWRGGSTYYADSVKGRFTISRDNAKNTVYLQMNSLKPEDTAVYYCAARRYTDYVRVAREMDYWGQGTQVSVSS”, the “polyreactivity (PSR sort gate)” value is reported as “high polyreactivity”.

In the case of “QVQLVESGGGLVQAGGSLRLSCAASGRTFGAYTMRWYRQAPGTERELVAAINRSGGDTYYADSVKGRFTISRDTAKNTVYLQMNSLKPEDNAVYYCNAEPRYGTYDYWGQGTQVTVSS”, the “polyreactivity (PSR sort gate)” value is reported as “low polyreactivity”. Next, “QVQLVESGGGLVQAGGSLRLSCAASGFTFAFNAMGWYRQAPGKERELVAAISGTVSRTRYADSVKGRFTISRDNAKNTVYLQMNSLKPEDTAVYYCAARGYYRYSYPYQPYRMDYWGQGTQVTVSS”: “high polyreactivity”.

Turning to “QVQLVESGGGLVQAGGSLRLSCAASGIIFGYYAMGWYRQATGKERELVAAINGRTGSTYYADSVKGRFTISRDNAKNTVYLQMNSLKPEDTAVYYCTAQSYKFHGDYWGQGTQVTVSS”, the “polyreactivity (PSR sort gate)” value is recorded as “high polyreactivity”. With “QVQLVESGGGLVQAGGSLRLSCAASGRTFRYHAMGWYRQAPGKERELVAGISWSGTSTYYADSVKGRFTISRDNAKNTVYLQMNSLKPEDTAVYYCNAVFRYRYDYWGQGTQVTVSS” the entry was “high polyreactivity”. With “QVQLVESCGGLVQAGGRLRLSCAASGRIFYSYAMGWSRQAPGKERELVAAITVSGGSTFYADSVKGRFTISRDNAKNTVYLQMNSLKPEDTAVYYCNAPKRYSTIGYDYWGQGSQVTVSS” the entry was “high polyreactivity”.

The values are drawn from the nanobody polyreactivity screen of Harvey et al. (2022).
